In paper doi:10.1101/2025.11.13.687974:

Columns and labels:
[1] = target: MBP-tagged chromoshadow domain (CSD) of wild-type HPL-2 (Caenorhabditis elegans); assay: mass photometry
[2] = target: human HP1β chromoshadow domain (CSD) (human); assay: mass photometry
[3] = target: biotinylated 12-mer H3K9me3 chromatin arrays (histone octamers with H3K9me3 on 12x200-601 DNA) (Xenopus laevis | not stated); assay: pull-down

Molecule “MBP-tagged chromoshadow domain (CSD) of wild-type HPL-2 (domain or fragment)” has a percent dimers [1] of 67%, a percent monomers [1] of 32% and a stoichiometry N [1] of 2.

“human HP1β chromoshadow domain (CSD) (domain or fragment)” gave a percent dimers [2] of 97% and a stoichiometry N [2] of 2.

B1: C. elegans HPL-2, wild-type recombinant protein (natural protein)
chain: MSSKSTKRAKIEDPKDNVFMVEKVLDKRTGKAGRDEFLIQWQGFPESDSSWEPRENLQCVEMLDEFEREFSKREKPIRKRHSQKPEPSEDQADPEEDKDEKKETNQNDKFSLEGKQLKCIVGLTKGPGELHFLCKFSDDTARLLPAKEVNSRYPSQVIRYYESKLTIQDPKADEL
Molecule B1 has a fold enrichment on H3K9me3 arrays relative to unmodified arrays [3] of 3 fold.
